{
  "source": "the DeepSol protein solubility set",
  "data": [
    {"test": "soluble on expression in E. coli; label from the status in PepcDB or PDB records", "values": [
      {"sequence": "ENILAGRAKAEKMRLSAERNRNQMEIYRSLQQGDECRKRQIHDYKNQLNCIRGLVDDNRTKEALRYIGQLTGSLNESIHQINTGHPVVNVLLNQKYQSAREQQISMTMTMNNLSELSLSEEDIVTLLANLLDNAIEACLKLHGDRRIQLKMVLEEEELFLSIRNPVEWEVKISGKTAAAAKEKSGEHGLGLGNVDAVIRKNRGRSTLQCQEGWFCFTAVILQPQR", "soluble on expression in E. coli": "not soluble"},
      {"sequence": "MELELDDDVFFADISKQLNLLITDEDEQNPISLSSSVSFQGLFRGNYQTSATPYMMYNEQINYNVIRESKGTGVFIPRSSQPRRKHNHHPHQKKQGRFIGSFIPKQQFPHHGHDNNLTTLNNNNQESITFHHASTNPRRTYRDAASLFT", "soluble on expression in E. coli": "not soluble"},
      {"sequence": "MGSDKIHHHHHHMKRMSCLLLGGLLLSGCGKEEAPPEPIRPVVFVEAQPESMQDFGRFAGNIQARYQSVLGFRVAGRIARRNVDVGSEVKKGDLLATLDPTDQQNNVRGRQGDLANVQAQWINAQANARRQQELFDRGVGAQAQLDVALTDLKTASSSLEQAKAAEQQARDQLSYSELHSDHDAVVTEWKVEAGQVVTAGQEVVTLARPDIKEAVIDLPDALADQLPRDVVFTVASQLNPDINTTATIREIEPQADRTTRTRRTRLSLAETPVAFRLGTAISVTLSSTITARMRLPINALQEVDGKRQIWIVDPQSQTVNPRAVNITSRDNDSFVLADGVKAGEKVVSAGVNSLKPGQKVKVDEESPR", "soluble on expression in E. coli": "not soluble"},
      {"sequence": "MLVLYLVFKKFLFKPVMKVINAREDMIKQQFDDAKKSQEEADALKASYDEKLESAKTEADEIIVNARNRAQEEHEAALEKTRKETEVMLEKAKADIATEKEKATEAAQADIARLALIAARKIVKTGDAHDAGSSK", "soluble on expression in E. coli": "not soluble"},
      {"sequence": "MGIIISLVAPTVSSTISSRLMIGPENNEKDAKNSDRTKYDNLAMLGRSPEQKEHVNPFEKAPVARPTRNTVDSQMMLGPPKKANDQSASDCSIYDNLVVPMSELGPTPGNKPSPNPIEGAPMIRPPQDTVSRAPDNSIYDTLQMTPEVDWSKKMTMKSMKKTGK", "soluble on expression in E. coli": "not soluble"},
      {"sequence": "SKNGLKKRKLTNPVQLDDFDGYIKDMAKDSDYKFSLQFEELKLIGLDIPHFAADLPMNRCKNRYTNILPYDFSRVRLVSMNEEEGSDYINANYIPGYNSPQEYIATQGPLPETRNDFWKMVLQQKSQIIVMLTQCNEKRRVKCDHYWPFTEDPIAYGDITVEMLSEEEHTDWVYRNFRISYADEVQDVMHFNYTAWPDHGVPTANAAESILQFVQMVRQKSVKSKGPMIIHCSAGVGRTGTFIALDWLLQHIRDHEFVDILGLVSDMRSYRMSMVQTEEQYIFIHQCVQLMWQKKKQQFCISDVIYENVSKS", "soluble on expression in E. coli": "soluble"},
      {"sequence": "MTETIKVSESLELHAVAENHVKPLYQLICKNKTWLQQSLNWPQFVQSEEDTRKTVQGNVMLHQRGYAKMFMIFKEDELIGVISFNRIEPLNKTAEIGYWLDESHQGQGIISQALQALIHHYAQSGELRRFVIKCRVDNPQSNQVALRNGFILEGCLKQAEFLNDAYDDVNLYARIIDSQ", "soluble on expression in E. coli": "soluble"},
      {"sequence": "MPHQSQPGFLLPAIQHHSMQGSLPGERDVTVVGGGFGGLAAAAYLARAGASVTLLEQHDTVGGRAGVLERDGFRFDTGPSWYLMPDVFERFFDHFDHDPHDFYELTRLDPQYRVFWTDGDSATIEPNRRNAHELFESYEEGAGDALATYLDRAATNYDLAMNRVVYPDRTAFRDYASTDMLPLASRLRLFGNMDDYVSRFFDHPKLRQLLEYTLVFLGGAPHNTPALYSIMSHVDLNGNVFYPEGGIAGVVDALAELAVEQGATIETGVGVNAISGRRGEFTLATDDGTRTTDLVVNNANPAYAERELLDTGGRDHAPDYWDDQTYAPSALMFYLGVEGDVEPLAHHSLVLPPDWDGHFAQLFDDPGWPDDPAFYLSVASKTDDTVAPDGHEAVVILLPIAPGLDDTPEIRAQYRDRLLGTLAAQTGVDLRDRIVVEESACVSEFSEQFGDPGGTALGLAHTLFQTGPLRPGKRDGPDGHYYVGAYTNPGIGMPMCLISGEHVTKAVIDDDPAASGSTDPLAVPGEFNFDTPTTAD", "soluble on expression in E. coli": "not soluble"},
      {"sequence": "MIQLEKLTKHFGTKRVVHDASAQFDKGQVTAIIGPNGAGKSTLLSMASRLVNRDAGKVWIEQRELVEWNTKALAQKLAVLRQSNVLNMRFTVRELTAFGRFPYSQGKLTTQDEQIINQAIEYLDLETIQYQYLDELSGGQRQLAFIAMVMAQDTDYVFLDEPLNNLDIKHSLQIMSTLRRLAHELNKAVVVVIHDINFASCYADKIVALKKGEVVATGSVRDVIQSEVLSAIYDTPFNVIEMQGQRLCLYTLPT", "soluble on expression in E. coli": "not soluble"},
      {"sequence": "MSNDHLETTGSSDPNTNLLKYLPIVLNPDRTITRPIQIPSTAASPDPTSSSPVLTKDLALNPLHNTFVRLFLPRHALYNSAKLPLVVYFHGGGFILFSAASTIFHDFCCEMAVHAGVVIASVDYRLAPEHRLPAAYDDAMEALQWIKDSRDEWLTNFADFSNCFIMGESAGGNIAYHAGLRAAAVADELLPLKIKGLVLDEPGFGGSKRTGSELRLANDSRLPTFVLDLIWELSLPMGADRDHEYCNPTAESEPLYSFDKIRSLGWRVMVVGCHGDPMIDRQMELAERLEKKGVDVVAQFDVGGYHAVKLEDPEKAKQFFVILKKFVVDSCTTKLKLN", "soluble on expression in E. coli": "soluble"},
      {"sequence": "MISVFDMFKVGIGPSSSHTVGPMKAGKQFIDDLIKRNQFEQTTEIHVDVYGSLSMTGRGHSTDIAIIMGLAGYLPHNVDIDMISGFIEKVKQTALLPINVGQKIVKFDFENNLIFHRTFLKLHENGMTITALDENRTELYRQTYYSIGGGFIVDEAHFGK", "soluble on expression in E. coli": "not soluble"},
      {"sequence": "MGSDKIHHHHHHMENIPFLRASTVPVIEYLDELKEIDASHIYTNYGPINQRFEQTIMSGFFQNRGAVTTVANATLGLMAAIQLKKRKKGKYALMPSFTFPATPLAAIWCGLEPYFIDISIDDWYMDKTVLWDKIEELKEEVAIVVPYATFGSWMNLEEYEELEKKGVPVVVDAAPGFGLMNGGMHYGQDFSGMIIYSFHATKPFGIGEGGLIYSKNEEDIQRIKRMGNFGFDTNRECTMMGFNCKMSEYAAAIGIATMKKWDDKLKERTRISEWYKQLLQSNGLMKKGWQLQKTEAVIQQFMPILCPEEVRNKQVIEDLKKQKIEARLYFSPSCHQQVLFRNYKSTDLTRTNKIAKRIVSLPLWEGMTKEIVEQIVICLGQKVVSADE", "soluble on expression in E. coli": "not soluble"},
      {"sequence": "MGHHHHHHSHMTRVKLQDGVHIIKETKEEVTPEQLKLMRTQDVKYIEMKRVAEAKKIERLKSELHLLDFQGKQQNKHVFFFDTKKEVEQFDVATHLQTAPELVDRVFNRPRIETLQKEKVKGVTNQTGLKRIAKERQKQYNCLTQRIEREKKLFVIAQKIQTRKDLMDKTQKVKVKKETVNFPAIYKFQSRRKR", "soluble on expression in E. coli": "not soluble"},
      {"sequence": "MGSDKIHHHHHHMIKVAVVGTVGIPACYGGFESLVENLTSYTSNKIEYDVFCSSKSYTNKRSHYNGAQLSYIPLNANGVQSIFYDIISLIFCIFKKPDVTLVLGVSGCLFLPVYRLLSKSKIVTNIDGLEWKRDKWSKWAKKFLKFSEYMAVKFSDVVITDNKAIGDYVNAEYSKDNVVIAYGGDHAIIEGKHVGPEQDYYLSLCRIEPENNVQMILNAFSKSQHKLKFVGNWNSSEFGRKLKREFSDQPNIDIVDPIYDVNQLFKLRSECKGYVHGHSAGGTNPSLVEAMHFEKTIFAFDCNFNRYTTEDKAVYFSSSKELNDKLTEVTKDELAVISTDMKQIADRRYTWKVINHMYEETYL", "soluble on expression in E. coli": "not soluble"},
      {"sequence": "MLAFKVVISDKEKSVQMEVDPSESRGLIGLTIGDEFDGSIIGLSGYKLKITGGSDKNGFPMKKTVPGARRIRSLVSGGVGYKPRRDGERRRKTFRGNTISDDIVQINTVVIEKLEHHHHHH", "soluble on expression in E. coli": "not soluble"},
      {"sequence": "SMTGPIVYVQNADGIFFKLAEGKGTNDAVIHLANQDQGVRVLGAEEFPVQGEVVKIASLMGFIKLKLNRYAIIANTVEETGRFNGHVFYRVLQHSIVSTKFNSRIDSEEAEYIKLLELHLKNSTFYFSYTYDLTNSLQRNEKVGPAASWKTADERFFWNHYLTEDLRNFAHQDPRIDSFIQPVIYGYAKTVDAVLNATPIVLGLITRRSIFRAGTRYFRRGVDKDGNVGNFNETEQILLAENPESEKIHVFSFLQTRGSVPIYWAEINNLKYKPNLVLGENSLDATKKHFDQQKELYGDNYLVNLVNQKGHELPVKEGYESVVHALNDPKIHYVYFDFHHECRKMQWHRVKLLIDHLEKLGLSNEDFFHKVIDSNGNTVEIVNEQHSVVRTNCMDCLDRTNVVQSVLAQWVLQKEFESADVVATGSTWEDNAPLLTSYQNLWADNADAVSVAYSGTGALKTDFTRTGKRTRLGAFNDFLNSASRYYQNNWTDGPRQDSYDLFLGG", "soluble on expression in E. coli": "soluble"},
      {"sequence": "MMYPYVRLFMEMRRARRLDPLPVLGTHRSSHRCLPWDLAPWRELNNGRTLTLFDLGRAPLLVRTGMQRICSEKGWGMTVAGSSVRYRRRVVLMERLEMVSRCLGWDGRFFYMEQSLWRKGDCTSHMLLRAATTTGSGIVPPAEVAAALGAGESPPLPDWAQAWIEADALRPWPPAALEHHHHHH", "soluble on expression in E. coli": "not soluble"},
      {"sequence": "HMRQRHILFANVQGHGHVYPSLGLVSELARRGHRITYVTTPLFADEVKAAGAEVVLYKSEFDTFHVPEVVKQEDAETQLHLVYVRENVAILRAAEEALGDNPPDLVVYDVFPFIAGRLLAARWDRPAVRLTGGFAANEHYSLFKELWKSNGQRHPADVEAVHSVLVDLLGKYGVDTPVKEYWDEIEGLTIVFLPKSFQPFAETFDERFAFVGPTLTGRDGQPGWQPPRPDAPVLLVSLGNQFNEHPEFFRACAQAFADTPWHVVMAIGGFLDPAVLGPLPPNVEAHQWIPFHSVLAHARACLTHGTTGAVLEAFAAGVPLVLVPHFATEAAPSAERVIELGLGSVLRPDQLEPASIREAVERLAADSAVRERVRRMQRDILSSGGPARAADEVEAYLGRVAP", "soluble on expression in E. coli": "soluble"},
      {"sequence": "MASISRARQVELLLVADASMARKYGRGLQHYLLTLASIANRLYSHASIENHIRLAVVKVVVLGDKDKSLEVSKNAATTLKNFCKWQHQHNQLGDDHEEHYDAAILFTREDLCGHHSCDTLGMADVGTICSPERSCAVIEDDGLHAAFTVAHEIGHLLGLSHDDSKFCEETFGSTEDKRLMSSILTSIDASKPWSKCTSATITEFLDDGHGNCLLDLPRKQI", "soluble on expression in E. coli": "soluble"}
    ]}
  ]
}
